Experiment: soluble fraction after stress (log2 fold change); higher = more stays soluble; pooled small domains, quantitative proteomics
Conditions: stress: 75 degC
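Further: 20 min heating vs room temperature control held 20 min.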

| Sequence | soluble fraction (log2) |
| --- | --- |
| HMLQIADEYLDRLQALFEDVRDNHFAIGDLLVELVDMHDSRRVDVINYIAGRLAISPTTLYDYENTARR | -1.15 |
| HMLQLDATDRALIVATQGGLPLVPRPYQVVGEQLGISGEEVVARLRALLDAGVIRRIGAVPN | -0.569 |
| HMLQLKEPLKKVYERLTPVPKTAETILAELWEKGEYLDIAALHRALMELELSGYVRQSSPGYFGTSA | -0.553 |
| HMLQQKESAALGERLLNQALATLKVEPDAISWDRWEALAKEYGAKSQLDILADIGLGKRLSFVVAQALTKV | -1.25 |
| HMLRDMIIQSYRYYTDKERNPRQVWNRMEADAFWEIIRDYEGYNGDGYVHTKIIPEMEALTVIEMDN | -1.83 |
| HMLRISLAAARVNAEMTQEDVAREMHVSKNTVVNWEKGKSEPTISQSRELSKLYNMPLEYIFYL | -2.68 |
| HMLRKTTDLDAIRSVAKDVIDQNPKAVEDYVGGKESAIGFLLGQVMRATKGTADANTVRELLKEILDS | 1.01 |
| HMLRPMVAILNKNISKGQVISEDYIKFEVRPERQIHGAYHDISEVLGRKTKNNIAAGTILKVRHLDT | -0.69 |
| HMLRQVSDSNALETAVKKVLDANPEEVERYKSGNKKLISFFVGQTMKATKGAGNPKEINSILAKLL | -0.326 |
| HMLSAEAAAARTAISTLSEDQQRVLGLSIQRGLVHEQIARATGLPLGTVKTHIRRGLIKVREALEAQAAG | 0.00212 |
| HMLSAGETYTLGYLKASDGILFTAADGSEQTVMQRVQVRLYDNGDGTYTARLADDIAYSAVVTEDMIDK | 0.27 |
| HMLSDAAAMESIAYEAIRQMEPDTYYIIGAGTTTRGIMEVLGLKNTLIGVDLIRNKELVANDLGGKELLSY | 0.0782 |
| HMLSDEDMMELAIIENLQRENLNPIEEARAYESLIDKGFTHTEIADKMGKSRPYISNSIRLLSL | 0.355 |
| HMLSDFHLNHDSIVNHTVQKKETIFSLSKKYGLSINEIIKANPGIQIDKLKRRSILIIPLRKK | -1.81 |
| HMLSDLTPGDLVVHATHGIGRFLGIRKLELEGMTKDYITIQYRGNENLYVPVTQMDLVSRYI | -1 |
| HMLSGGEVKRIEIATILARKSGLMIFDEPEAGIDLWSFARLVETFEDIRSNTSGSLVIISHQ | 0.0709 |
| HMLSKEERRSQLLDLGVRLLSTRSLDELSIDLLAEEAGISRGLLYHYFGNKHDFHEAVVRRAADDLI | -2.15 |
| HMLSLKAQVYEIIRQKILQQEYALGEKINIDTVADELKISNSPIREALMMLSQDGLIEMVPNNGARVI | -1.88 |
| HMLSLSDIINDVMERLTREKNLTFDELLGEKRERRRIVYTFLALLELIRLKMIKAYQTAAFGVIRIFPR | -1.4 |
| HMLSLTSRQQEIFDLIKGHIKKTGMPPTRSEIALHFGFRSANSAEEHLRALARKGFIELIPGTSRGIKLIE | -1.87 |
| HMLSPPWYEYHRKVQAMFGRDPEVHIKDLDDLGDGKFSYMILVYNKEKAEAIKAILPQKVEMGNVTIETAI | -1.87 |
| HMLSRNEWLVMEALWERPSTLMELVRQLGQEPPGWAKSTTATMVRRMEEKGLIRHEAGSKARVYHP | -1.82 |
| HMLSSAAAIDRILAGGTAAMNHRQFDAALTSFNTVIEMRPDFAEGWNKRATLYYLIGEYERSIADVERTLA | 0.183 |
| HMLSTRERMSSLMAQLQVQQFMPFHRLFTISEGRMGVIVTFLAMMELVKENLIKLIQAQEYGPIHVSLG | 0.467 |
| HMLSVRERMSAILVSLEGERYADFTGLFDPTEGKGGVTVTFLAILELLKESMIDVVQNELYGPIHVRAA | -1.07 |
| HMLSVRNRMSDVLKSLDDGEFHRFESLFNLEEGRLGVVVTFLAMLELAKEMLVEIVQNESLGPIYLKSR | 0.041 |
| HMLSVRQRMGELLERLADGQFHRFESLFTVEEGKLGVVVTFLGLLTLAKEQLLDIVQEGPTAPIYVKSLA | -0.569 |
| HMLSVTLTVLPQQAGERLDAFAAAESTLSRSAAAKLIEDGQITVNGARAAKNYRLRAGDVIEIDEPEPI | -0.0471 |

| Sequence | soluble fraction (log2) |
| --- | --- |
| HMLTAPMPGTIQQILVTKGQKVRSGQTLMILEAMKMEHKIKAPNSGEIISINYSLGNRVEMGANLIEI | -2.1 |
| HMLTDAAAVKRSVRNLVQYGFYEKPFHPEIGSGVRDLLFENMTPFVANNLSKQIEEIITNYEPRA | -0.314 |
| HMLTDMSKIRKVLKLYGKGNSKLFISTYLSLSRNTVKKYISLFEVSGKTIEEILAKSDSELELLFSG | -0.981 |
| HMLTEREQDTLNFIRQYIDEQGRSPLVSEIAKGLGIKSQGTTHRYIQALVDAGLLERHVGRTRGLHLT | -0.0653 |
| HMLTGADAEKATAAAQAEFPGGTVLRVETDADGTYEAHVRKADGTEVEVKMDKDFKVTSVEE | 0.142 |
| HMLTLAVPNSINMRLDKYLSENIDYLSRSKIQGLINDGKVTINGENEKSSYKLNGDESIVIYYEE | -0.377 |
| HMLTPQEIGSRLKLVRQGLQLKQQEVAEIIGTSQLKISKIEQGATVTTPDFLKLLAFYSQSVSLDILF | -0.546 |
| HMLTRQRKQLLEYLSKHTDEQMTARQIADALTAESISISAVYRNLSALEEEGILKRSIRENTREVYYQYIA | -1.57 |
| HMLTSIDQMLKLAMPDSDITVSKMNGLILLTGTVKAPEDAAEAERLVQAFSAPPPGQPPVTVVSRLRTA | -0.402 |
| HMLTTMSSQWKPSLDAIEILEKSGIAYSFIEDAIPEFVLYWRERGISHGAWNTKFVEHIRKQWAKFEAS | -1.73 |
| HMLTTVAAQRAALHQEEDITKLREIILKLVPFWGLDGGAYADKETSIQLERQYRESFDQAVSAARRSGQA | -0.335 |
| HMLTWNQLGLITKPVVFLDGTGYYARLFEAFEHMISTGFVKENYRAMMNRATSVEEAVRIASSPAPKVD | -0.0438 |
| HMLVGGPDTPSKVTVSFDLGSRQAVDELTERAGAAGGRIGDIDDYPFMYQRQFDDPDGYHYSPFWMKP | -0.177 |
| HMLVTQSITVPMAMSGIRLDAALAMLFPDHSRNRLKAWLDDGHILVDGAVWAGKQRLEGNEEITATLPEAK | -0.673 |
| HMLYDNQLPDWAGQMVKNHGLTISPKALVILVDHIGNDLSRIENEIEKLMLNLGTRKSITEDDVEN | -1.61 |
| HMLYETLKKGDQGTSVKTLQEKLKALGYLTGAADGKYGAGTETAVKSFQKAAGLTETGTADPETLSAVYAA | 0.619 |
| HMLYITEIQKKIMDAFLVVANESNSGTRITMNEIANKVRMTPQAIYRKHFKSVIEISDTIRD | -0.551 |
| HMMEERVIEFANVLRRNGVRVSLAENMDAFRALKSLGISDPLLFRHALRATLIKRGSDIQPFEELFDFFFL | -1.42 |
| HMNAAFMKAERLLAILNILLTGKRVSSTELAKKLEVSVRTVYRDVEALSEAGFPVYATMGRDGGFGLIEGF | -2.09 |
| HMNADAIIGRMGKVTEPITPDGYGRVEIDGDSWKATAVGGVAIAEGTRVSVVSLDSIIITVKTV | -1.44 |
| HMNADAIVGRTGVVTEAIAADGFGRVQIDGDSWKAKASGNNGIDVGAKVRVLRIDSIILTVEK | -1.07 |
| HMNAELSTVQAAEVLNVSRPFLIKLLEDGAIPHRKVGKHRRVRMEDVMSYKAAIDTEREAVLDQLAA | -0.13 |
| HMNAISIDEAKKIALAKVSGASDQHIRIEADHDDGRLVYEGEIHYGRVEYEFEIDGSTGAIIEWDADRK | -0.286 |
| HMNAKKSTLQLDLLKQLLEGNKISLKDFSLSNEISIRTAQRYIEDLLEIFEKNIVKEGDFYSFIS | -3.4 |
| HMNAKNPRALAIQYVFKMQMGNFLHAKTDNQQQEQERIMTLFNEENKNTILPRWGKELLSYINRN | -0.74 |
| HMNDENIIIEEIKYFIKSNQIKEQEKLPSERNLSELFTVSRFSLRKALRHLVDTGYLYVKDKSGYYYQGD | -2.55 |
| HMNDLIKMPYLVGQLYDDVASNQEYADFQFKITEGNDPDKQPGEIMKQDPAADIMVKKNAEVELLVNG | 0.374 |
